We go through five molecules from paper PMC10816986, “The Role of Key Amino Acids of the Human Fe(II)/2OG-Dependent Dioxygenase ALKBH3 in Structural Dynamics and Repair Activity toward Methylated DNA” (International Journal of Molecular Sciences, 2024).

The Kd is the constant that tells how readily two partners part at equilibrium.

The target in data set [1] is T1, ALKBH3 wt (Homo sapiens, UniProt Q96Q83 1-286).
T1 sequence: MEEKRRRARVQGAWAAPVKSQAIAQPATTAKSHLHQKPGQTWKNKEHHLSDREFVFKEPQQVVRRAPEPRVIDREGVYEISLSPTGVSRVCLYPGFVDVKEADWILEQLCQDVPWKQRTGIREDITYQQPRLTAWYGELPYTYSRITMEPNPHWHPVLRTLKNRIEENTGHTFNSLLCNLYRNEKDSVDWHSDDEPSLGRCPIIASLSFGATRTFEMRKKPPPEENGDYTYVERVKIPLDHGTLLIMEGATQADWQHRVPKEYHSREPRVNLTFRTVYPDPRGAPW
Briefly: intrinsic Trp fluorescence titration; apoprotein, 2 mM EDTA, no Fe(II)/2OG; Titration: 50 mM HEPES-KOH pH 7.8, 50 mM KCl, 10 mM MgCl2, 2 mM EDTA, 25 °C, 1 µM apoprotein; stopped-flow: with Fe(II) and 2OG, 0.5-4.0 µM DNA (buffer not in material). As to conditions: protein: recombinant; tags: N-terminal His-tag (pET28a); single strand.

Another data set deals with T2, ALKBH3 Y143A (Homo sapiens, UniProt Q96Q83 1-286, Y143A).
T2 sequence: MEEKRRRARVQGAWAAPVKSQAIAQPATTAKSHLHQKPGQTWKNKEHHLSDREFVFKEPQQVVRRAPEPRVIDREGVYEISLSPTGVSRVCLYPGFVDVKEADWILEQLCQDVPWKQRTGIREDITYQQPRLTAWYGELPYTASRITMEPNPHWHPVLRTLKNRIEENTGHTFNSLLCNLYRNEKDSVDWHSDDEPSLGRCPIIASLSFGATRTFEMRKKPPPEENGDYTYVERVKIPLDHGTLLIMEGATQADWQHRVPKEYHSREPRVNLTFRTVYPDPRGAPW
The description is as above. As to conditions: protein: recombinant; tags: N-terminal His-tag (pET28a); single strand.

Another data set concerns the target T3, ALKBH3 H191A (Homo sapiens, UniProt Q96Q83 1-286, H191A).
T3 sequence: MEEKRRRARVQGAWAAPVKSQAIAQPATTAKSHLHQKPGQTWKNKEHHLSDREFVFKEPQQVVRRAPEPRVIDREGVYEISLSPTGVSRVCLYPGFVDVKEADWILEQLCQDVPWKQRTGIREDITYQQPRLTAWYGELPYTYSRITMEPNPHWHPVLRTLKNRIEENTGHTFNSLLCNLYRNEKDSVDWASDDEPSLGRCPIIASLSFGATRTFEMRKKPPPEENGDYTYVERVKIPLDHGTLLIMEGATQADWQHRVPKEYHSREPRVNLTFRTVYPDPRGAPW
Described as above. As to conditions: protein: recombinant; (Ni-chelating purification); single strand.

The next data set concerns the target T4, ALKBH3 L177A (Homo sapiens, UniProt Q96Q83 1-286, L177A).
T4 sequence: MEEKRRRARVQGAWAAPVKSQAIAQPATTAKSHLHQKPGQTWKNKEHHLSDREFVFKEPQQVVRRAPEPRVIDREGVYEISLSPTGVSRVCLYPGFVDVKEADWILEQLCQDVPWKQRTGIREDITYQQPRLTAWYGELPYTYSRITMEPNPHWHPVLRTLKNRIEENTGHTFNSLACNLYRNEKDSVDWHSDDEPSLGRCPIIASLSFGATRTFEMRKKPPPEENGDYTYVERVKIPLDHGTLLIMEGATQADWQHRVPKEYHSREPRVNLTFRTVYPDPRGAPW
The description is as above. As to conditions: protein: recombinant; (Ni-chelating purification); single strand.

Data set [2] concerns the target T1, ALKBH3 wt. Briefly: stopped-flow FRET kinetics (DynaFit); Fe(II), 2OG; overall Ka = K1+K1K2+K1K2K3; Titration: 50 mM HEPES-KOH pH 7.8, 50 mM KCl, 10 mM MgCl2, 2 mM EDTA, 25 °C, 1 µM apoprotein; stopped-flow: with Fe(II) and 2OG, 0.5-4.0 µM DNA (buffer not in material). As to conditions: protein: recombinant; tags: N-terminal His-tag (pET28a); label: 5'-6-FAM, 3'-BHQ1; single strand.

The target of data set [3] is T5, ALKBH3 Y143F (Homo sapiens, UniProt Q96Q83 1-286, Y143F).
T5 sequence: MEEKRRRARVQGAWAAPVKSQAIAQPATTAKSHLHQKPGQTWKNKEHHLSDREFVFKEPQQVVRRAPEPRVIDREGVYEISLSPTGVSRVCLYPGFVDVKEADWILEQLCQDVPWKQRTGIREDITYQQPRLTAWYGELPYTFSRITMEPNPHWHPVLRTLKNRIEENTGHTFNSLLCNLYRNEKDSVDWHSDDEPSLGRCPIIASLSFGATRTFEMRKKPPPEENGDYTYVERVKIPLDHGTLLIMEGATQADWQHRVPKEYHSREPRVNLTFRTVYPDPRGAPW
The data set is described as above. As to conditions: protein: recombinant; tags: N-terminal His-tag (pET28a); label: 5'-6-FAM, 3'-BHQ1; single strand.

Data set [4] concerns the target T1, ALKBH3 wt. Briefly: stopped-flow FRET kinetics (DynaFit); Fe(II), 2OG; enzyme-product complex; Titration: 50 mM HEPES-KOH pH 7.8, 50 mM KCl, 10 mM MgCl2, 2 mM EDTA, 25 °C, 1 µM apoprotein; stopped-flow: with Fe(II) and 2OG, 0.5-4.0 µM DNA (buffer not in material). As to conditions: protein: recombinant; tags: N-terminal His-tag (pET28a); label: 5'-6-FAM, 3'-BHQ1; single strand.

Data set [5] addresses T5, ALKBH3 Y143F. The description is as above. As to conditions: protein: recombinant; tags: N-terminal His-tag (pET28a); label: 5'-6-FAM, 3'-BHQ1; single strand.
Data set [6] relates to m3C_FRET substrate (m3C-containing DNA). Further details: method as in PMID 31847292. As to conditions: AlkB-ssDNA, pre-steady-state; cited from earlier work.
On the set-up of data set [7]: method as in PMID 22443471. As to conditions: cited from earlier work.
On the set-up of data set [8]: method as in PMID 35956910, doi:10.1134/S1068162019060190. As to conditions: previous investigations; read-out: Kd for complexes with transitional metals and 2OG; cited from earlier work.
In data set [9] the test system is single-stranded DNA substrate m3C_FAM. The arrangement: method as in PMID 35956910. As to conditions: similar m3C-containing substrate, identical conditions; cited from earlier work.

ACAGGATCCGGCATA (ssDNA, N3-methylcytosine at position 9) [m3C]: the dissociation constant Kd in the data set with ALKBH3 wt [1] stood at 2.8 ± 0.1 µM; with ALKBH3 Y143A it was 6.3 ± 0.6 µM; with ALKBH3 H191A it was 4.3 ± 0.3 µM; in the data set with ALKBH3 L177A, 5.7 ± 0.3 µM.
In the case of ACAGGATCCGGCATA (ssDNA, N3-methylcytosine at position 9) [m3C_FRET], the Ka with ALKBH3 wt [2] worked out at 1.9e+06 M⁻¹; with ALKBH3 Y143F [3], 1.4e+06 M⁻¹.
Consider ACAGGATCCGGCATA (ssDNA, none (m3C demethylated to C)) [m3C_FRET repaired product], for which the results for the Kd with ALKBH3 wt [4] and in the data set with ALKBH3 Y143F [5] were 0.72 µM and 0.083 µM, respectively.

B1: AlkB: E. coli AlkB dioxygenase, literature comparison (protein, UniProt P05050 1-216, looked up)
Alpha-ketoglutarate-dependent …: MLDLFADAEPWQEPLAAGAVILRRFAFNAAEQLIRDINDVASQSPFRQMVTPGGYTMSVAMTNCGHLGWTTHRQGYLYSPIDPQTNKPWPAMPQSFHNLCQRAATAAGYPDFQPDACLINRYAPGAKLSLHQDKDEPDLRAPIVSVSLGLPAIFQFGGLKRNDPLKRLLLEHGDVVVWGGESRLFYHGIQPLKAGFHPLTIDCRYNLTFRQAGKKE
On to B1, for which, in [6], the “kr (hydroxylation of the substrate's methyl group)” value was 0.19 s⁻¹. Besides, the Tm in data set [7] is 54 °C. The equilibrium dissociation constant (Kd) in data set [8] is 15 to 50 µM.

B2: ALKBH2: human AlkB homolog 2 dioxygenase, literature comparison (protein, UniProt Q6NS38 1-261, looked up)
DNA oxidative demethylase …: MDRFLVKGAQGGLLRKQEEQEPTGEEPAVLGGDKESTRKRPRREAPGNGGHSAGPSWRHIRAEGLDCSYTVLFGKAEADEIFQELEKEVEYFTGALARVQVFGKWHSVPRKQATYGDAGLTYTFSGLTLSPKPWIPVLERIRDHVSGVTGQTFNFVLINRYKDGCDHIGEHRDDERELAPGSPIASVSFGACRDFVFRHKDSRGKSPSRRVAVVRLPLAHGSLLMMNHPTNTHWYHSLPVRKKVLAPRVNLTFRKILLTKK
As for B2, the “observed rate constant for demethylation, kobs” value in data set [9] was 0.22 min⁻¹. In data set [8], the Kd is 15 to 50 µM.
